Results published in patent US8614369B2, “Enzymes involved in triterpene synthesis” (Plant Bioscience Limited, priority 2007, dated 2013).

Assay: Activity of AsGT2 towards salicylate (radioactive TLC assay and LC-MS assay)
Type: biochemical
Parameters: key: A “+” denotes activity
Conditions: acceptor substrate salicylate; sugar donor L-arabinose; recombinant AsGT2 expressed in E. coli
Procedure: Radioactive assays with a complex acceptor substrate were used to detect low level activity with pure or enriched substrates. The assays contained 4 μl ^14C-UDP-glucose, 25 μl 50 mM potassium phosphate buffer pH 7.6, 0.25 μl 100 mM acceptor substrate in DMSO, 5 μl of the dialyzed protein preparation, and 3 μl 10 mM DTT. The reaction proceeded at 28 degrees Celsius for 2.5 hours shaking gently before stopping by the addition of 50 μl chloroform:methanol (2:1). The aqueous phase was extracted three more times with chloroform methanol and the solvent phases were pooled. The extracts were dried down at 60 degrees Celsius and resuspended in 40 μl of chloroform:methanol. The aqueous phase was dried down also and resuspended in water. A silica-gel TLC plate was loaded with 15 μl of the extracts and chromatographed with chloroform:methanol:water (13:6:1) against standards.
The acceptor substrates tested were β-amyrin-arabinoside, benzoic acid and salicylic acid. The sugars donors tested were D-glucose and L-arabinose.
To confirm the chemical structures of the products visualized by the radioactive assay a non-radioactive LC-MS assay was developed. […] Reactions were stopped by the addition of 100% methanol, which was then evaporated from the reaction at 50 degrees Celsius, and were analysed by LC/MS/MS using reversed-phase chromatography. […]

B1: AsGT2: family 1 glucosyltransferase from Avena strigosa (SEQ ID NO:6), expressed in E. coli and purified (protein, listed as Avena strigosa)
chain: MGAEWEHVSDIHVLLLPYPVQGHINPMLQFGKRLAHIGGVGVRCTLAITPYLLRQCQDPCPGAVHLVEISDGFDSAGFEEVGDVAAYLAGMESAGSRTLDELLRSEAEKGRPIHAVVYDAFLQPWVPRVARLHGAACVSFFTQAAAVNVAYSRRVGKIEEGLPAGFEAEDLPTFLTLPLPYQDMLLSQFVGLDAVDHVLVNSFHELQPQESAYMESTWGAKTVGPTVPSAYLDKRITDDVSYGFHLYTPMTATTKAWLDAQPPRSVTYVSFGSMATPGPTEMAEMAEGLHSSGKAFLWVVRASEASKIPDGFQERVGGRGLVVTWVAQLEVLAHGAIGCFVTHCGWNSTMEALGAGVPMVAVPQWSDQPTNAKFVEDVWCVGVRARRDPEGVVRREELERCIREVTGDDKYACNALDWKEKSKRAMSQGGSSDMNITEFLQALRRSRKSYEAKPIEPLLVGLDA
Activity of AsGT2 towards Salicylate, L-Ara: +
